Article PMC10786401

Legend:
[1] = target: N67A mutant ZIKV capsid (C) protein as N-terminal MBP fusion (MBP-C_(N67A)) (Zika virus MR766); assay: cross-linking; glutaraldehyde 0, 0.25, 0.5 and 1.0 mM; MBP-C protein 0.16 mg/ml in PBS, 50 uL, room temperature, 20 min, stopped with 50 mM Tris pH 8; SDS-PAGE, Coomassie blue
[2] = target: Wild-type ZIKV capsid (C) protein as N-terminal MBP fusion (MBP-CWT) (Zika virus MR766); assay: as above

Substance | stoichiometry N [1] | stoichiometry N [2]
N67A mutant ZIKV capsid (C) protein as N-terminal MBP fusion (MBP-C_(N67A)) (natural protein) | 2 | –
Wild-type ZIKV capsid (C) protein as N-terminal MBP fusion (MBP-CWT) (natural protein) | – | 2
